T1: MsDisA (Mycobacterium smegmatis mc2155, UniProt A0R564 1-372)
T1 sequence: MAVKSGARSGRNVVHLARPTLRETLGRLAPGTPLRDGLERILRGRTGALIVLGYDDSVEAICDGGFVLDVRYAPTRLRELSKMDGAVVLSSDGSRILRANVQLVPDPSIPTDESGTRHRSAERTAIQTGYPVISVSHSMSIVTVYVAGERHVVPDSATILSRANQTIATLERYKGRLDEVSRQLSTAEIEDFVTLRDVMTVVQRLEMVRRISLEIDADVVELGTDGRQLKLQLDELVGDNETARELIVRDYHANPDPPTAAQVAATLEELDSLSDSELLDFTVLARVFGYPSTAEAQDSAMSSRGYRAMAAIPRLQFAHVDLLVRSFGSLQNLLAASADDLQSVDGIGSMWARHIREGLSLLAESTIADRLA

B1: dsDNA 50mer (dsDNA)
DNA 1: GGATACGTAACAACGCTTATGCATCGCCGCCGCTACATCCCTGAGCTGAC
DNA 2: GTCAGCTCAGGGATGTAGCGGCGGCGATGCATAAGCGTTGTTACGTATCC
B2: HLDNA (synthetic Holliday junction) (structured_DNA)
DNA 1: ATCGATAGTCTCTAGACAGCATGTCCTAGCAAGCCAGAATTCGGCAGCGT
DNA 2: GACGCTGCCGAATTCTGGCTTGCTAGGACATTCTTTGCCCACGTTGACCC
DNA 3: GGGTCAACGTGGCAAAGAATGTCCTACGTCCGATACGGATAATCGCCAT
DNA 4: ATGGCGATTATCCGTATCGGACGTCGGACATGCTGTCTAGAGACTATCGA

Target: T1, MsDisA
Experiment: EMSA

| Binder | binding result |
| --- | --- |
| B1 | no binding |
| B2 | no binding |
